Experimental findings from publication PMC7959842, “Deregulation of Factor H by Factor H-Related Protein 1 Depends on Sialylation of Host Surfaces” (Frontiers in Immunology, 2021) are described below.

Assay [1] addresses C3b (UniProt P01024). In words: SPR; C3b immobilised in two ways: biotin coupling (~1,500 RU on a streptavidin SAP chip) and amine coupling (~7,250 RU on a CMD500M chip); analytes flowed (FH18-20 constructs 0.16-40 or 0.63-40 uM, FHR-1 constructs 0.04-10 uM); 25 C, PBS 0.005% Tween20, 25 ul/min; 1:1 steady-state affinity fit; the printed ranges span both ways of immobilisation. On the technique in general: Surface plasmon resonance follows binding to a sensor surface in real time, without labels.

In assay [2] the target is C3b (UniProt P01024). In words: SPR; AP C3 convertase formation: ~6,000 RU C3b amine-coupled on a CMD500M chip; FB (600 nM) + FD (100 nM) injected alone or mixed with analyte (9.6 uM); signal of the analyte alone subtracted; 25 C, PBS 0.005% Tween20, 1 mM MgCl2.

For orientation: Kd means the free concentration of one partner at which half of the binding sites on the other are occupied at equilibrium, for simple one-to-one binding. A lower Kd goes with a tighter complex. Substance “FHR-1(SV) (from UniProt Q03591 19-330) (natural protein)” registered a Kd with C3b [1] of 1.4 to 1.5 µM. For the same substance, in the assay with C3b [2], the decrease of the AP C3 convertase signal (FB + FD on C3b) with the analyte co-injected at 9.6 uM is 50%.

As to “FHR-1 (factor H-related protein 1, FHR-1*B, wild-type) (from UniProt Q03591 19-330) (natural protein)”, the decrease of the AP C3 convertase signal (FB + FD on C3b) with the analyte co-injected at 9.6 uM with C3b [2] came to 50%.
